B1: XG014 monoclonal antibody (IgG) (antibody, V domains shown)
VH: EVQLVQSGAEVKKPGESLKISCKGSGYSFSNYWIGWVRHMPGKGLEWMGIIYPGDSDTRYSPSFQGQVTISVDTSISTAYLQWSSLKASDTAMYYCTRHQYGYNYGYFYYYIDVWGKGTTVTVSS
VL: QSVLTQPPSVSAAPGQKVTISCSGSSSNIGNNPVSWYRQVPGTAPKLLIYDNNKRPSGIPDRFSGSKSGASATLGITGLQTGDEADYYCGTWHTSLSSGVFGGGTKLTVL
B2: XG005 monoclonal antibody (IgG) (antibody, V domains shown)
VH: QVTLRESGPTLVKPKQTLTLTCTFSGFSLSTPGGGVGWIRQPPGKALEWLALIYWDDDKRYSPSLKSSLTITKDTSKNQVVLTMTNMDPVDTATYYCARLTAADTIFDCWGQGTLVTVSS
VL: QSALTQPASVSGSPGLSITISCTATSSDVGAYNYVSWYQQHPGQAPKLMIYDVSKRPSGVSNRFSGSKSANTASLTISGLQAEDEADYYCSSYTTTSVVFGGGTKLTVL

Tests used:
[1] = biological target: T1, Avi-tagged SARS-CoV-2 RBD, biotinylated (Severe acute respiratory syndrome …, UniProt P0DTC2, biotin (BirA biotinylation of the Avi tag)); test: BLI; settings: both partners purified
T1 construct: also called biotinylated RBD protein of SARS-CoV-2

[2] = biological target: recombinant S-ECD of SARS-CoV (Severe acute respiratory syndrome …, UniProt P59594); test: cell-based or functional assay
[3] = biological target: recombinant SARS-CoV-2 RBD protein (wild type) (SARS-CoV-2, UniProt P0DTC2); test: ELISA; settings: both partners purified

Binder	Kd [1] [pM]	IC50 of neutralisation of SARS-CoV pseudovirus in Huh-7 cells [2] [µg/mL]	binding result [3]
B1	< 1	0.016	–
B2	–	–	binds

Reference: paper PMC8458794 (Protein & Cell, 2021)
